Positions of bridges follow the written chain, without caps; N, C: chain ends. No end group written: not given here.
Molecular target: thioredoxin reductase
Assay: cell-based or functional assay

B1: peptide YJB02 (peptide)
peptide: GTCVNVGCIPRQIKIWFQNRRMKWKK
modifications: disulfide 3-8 (inferred)
  IC50 of thioredoxin reductase activity (DTNB reduction, absorbance at 405-414 nM): 36 nM

From patent publication US20110171292A1 (RESEARCH FOUNDATION OF STATE UNIVERSITY OF NEW YORK, published 2011)
